# Article doi:10.1101/2024.04.20.590211 (bioRxiv, 2024)
# B1: hANP32A 144-249 (LCAR alone) (domain or fragment)
# chain: YLDGYDRDDKEAPDSDAEGYVEGLDDEEEDEDEEEYDEDAQVVEDEEDEDEEEEGEEEDVSGEEEEDEEGYNDGEVDDEEDEEELGEEERGQKRKREPEDEGEDDD
# Target: FluPolB, influenza B/Memphis/2003 polymerase heterotrimer (wild type) (influenza B virus B/Memphis/2003, UniProt Q5V8Z9;Q5V8Y6;Q5V8X3)
# Test: SEC
binder,measurement,value
B1,binding result,binds
